Test results taken from publication PMC3950512.

Tests used:
Experiment in all cases: purified protein
Settings in all cases: 25°C, 50 mM Tris-HCl pH 8.0, 10 mM MgCl2
[1] = test system: C[N+]1(C)CCC[C@@H]1C(=O)[O-]
[2] = test system: C[N+]1(C)CCC[C@@H]1C(=O)[O-]; assay type: biochemical, Cereibacter sphaeroides
[3] = test system: C[N+]1(C)C[C@H](O)C[C@H]1C(=O)[O-]

| Substance | Km [1] [mM] | kcat [1] [s⁻¹] | kcat/Km [1] [M⁻¹ s⁻¹] | Km [2] [mM] | kcat [2] [s⁻¹] | kcat/Km [2] [M⁻¹ s⁻¹] | Km [3] [mM] | kcat [3] [s⁻¹] | kcat/Km [3] [M⁻¹ s⁻¹] |
| --- | --- | --- | --- | --- | --- | --- | --- | --- | --- |
| pdHpbD (Paracoccus denitrificans PD1222) | 7.3 ± 3 | 28 ± 6 | 3800 | – | – | – | – | – | – |
| rsHpbD (Cereibacter sphaeroides 2.4.1) | – | – | – | 11 ± 4 | 4.3 ± 0.6 | 390 | 16 ± 7 | 70 ± 7 | 4300 |
